Results on one molecule are retold here after patent US11033621B2, “Combination therapies targeting tumor-associated stroma or tumor cells” (BIOMED VALLEY DISCOVERIES, INC., priority 2014, dated 2021).

This assay deals with H460 cells. In words: H460 non-small cell lung carcinoma xenograft model. Type of assay: in vivo, athymic nude mice. Particulars: combination partner Paclitaxel, Day 21. The protocol:
Animals were monitored for regression responses.
The statistical tests were not adjusted for multiple comparisons.
Cultured H460 cells were harvested during exponential growth and resuspended in phosphate buffered saline at a concentration of 1×10^8 cells/mL. 1.0×10^7 tumor cells were injected subcutaneously into the flank of athymic nude mice. Animals were euthanized when tumors reached the pre-determined volume endpoint of 2000 mm^3 or on the final day (Day 88), whichever came first.

B1: M830: TEM8 monoclonal antibody (hIgG1), VH SEQ ID NO:5, VL SEQ ID NO:6; Fab in Table 6 (antibody, V domains shown)
VH: EVQLVESGGGVVQPGRSVRLSCAASGFTFSTYTMHWVRQAPGKGLEWVAIISNDGSNKYYADPVRGRFTISRDNSKNTLYLQMNSLRAEDTAVYYCVRGSSWYRGNWFDPWGQGTLVTVSS
VL: DIQMTQSPSSLSASVGDRVTIACRASQTISRYLNWYQQKPGKAPKLLIYAASSLQSGVSSRFSGSGSGTEFTLTISSLQPEDFATYFCQQTYSPPITFGQGTRLEIKR
modifications: TEM830 mAb VH; TEM830 mAb VL
As to B1, the regression result is given as “(−61%”.
